Test results as given in publication PMC12416549 (2024).
Residue numbers refer to the chain shown, from its start. Names and notes keep the numbering of the source. Values belong to the binder of their own block, whether it stands above or below them.

Target: T1, TNFR1 (Homo sapiens, UniProt P19438)
T1 chain: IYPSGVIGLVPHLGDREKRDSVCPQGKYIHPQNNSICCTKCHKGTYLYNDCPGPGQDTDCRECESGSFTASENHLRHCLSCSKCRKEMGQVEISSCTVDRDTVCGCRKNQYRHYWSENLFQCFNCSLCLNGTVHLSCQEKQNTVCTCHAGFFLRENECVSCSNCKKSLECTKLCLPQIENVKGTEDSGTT
Test: yeast display SC50

- apparent Kd (screen): 0.718 nM
B1: H24G (designed binder)
chain: SMEEEVEKAAKEYEKKKKEAIEKGLEKLKAKDKEAAERFLKELEEAAKEYAKDEAKTMSEEEAKRRAKKYKEKVLLSELSEEEQKEIKEAEEKLVRTILKYVEEAAK

- apparent Kd (screen): 0.653 nM
B2: K15D (designed binder)
chain: B1 chain with K15D, G24H

- apparent Kd (screen): 0.446 nM
B3: K31V (designed binder)
chain: B1 chain with G24H, K31V

- apparent Kd (screen): 0.593 nM
B4: E5A (designed binder)
chain: B1 chain with E5A, G24H

- apparent Kd (screen): 0.956 nM
B5: E26Q (designed binder)
chain: B1 chain with G24H, E26Q

- apparent Kd (screen): 29.5 nM
B6: V74Q (designed binder)
chain: B1 chain with G24H, V74Q

- apparent Kd (screen): 1.16 nM
B7: L75R (designed binder)
chain: B1 chain with G24H, L75R

- apparent Kd (screen): 0.869 nM
B8: M2Q (designed binder)
chain: B1 chain with M2Q, G24H

- apparent Kd (screen): 5.84 nM
B9: I98N (designed binder)
chain: B1 chain with G24H, I98N

- apparent Kd (screen): 1.69 nM
B10: E45L (designed binder)
chain: B1 chain with G24H, E45L

- apparent Kd (screen): 0.446 nM
B11: A47H (designed binder)
chain: B1 chain with G24H, A47H

- apparent Kd (screen): 0.653 nM
B12: E104I (designed binder)
chain: B1 chain with G24H, E104I

- apparent Kd (screen): 5.31 nM
B13: A67D (designed binder)
chain: B1 chain with G24H, A67D

- apparent Kd (screen): 12.5 nM
B14: K73H (designed binder)
chain: B1 chain with G24H, K73H

- apparent Kd (screen): 9.41 nM
B15: A63M (designed binder)
chain: B1 chain with G24H, A63M

- apparent Kd (screen): 22.2 nM
B16: D32W (designed binder)
chain: B1 chain with G24H, D32W

- apparent Kd (screen): 0.49 nM
B17: M2N (designed binder)
chain: B1 chain with M2N, G24H

- apparent Kd (screen): 0.446 nM
B18: K11A (designed binder)
chain: B1 chain with K11A, G24H

- apparent Kd (screen): 0.49 nM
B19: E62K (designed binder)
chain: B1 chain with G24H, E62K

- apparent Kd (screen): 1.86 nM
B20: E89C (designed binder)
chain: B1 chain with G24H, E89C

- apparent Kd (screen): 7.78 nM
B21: E54Y (designed binder)
chain: B1 chain with G24H, E54Y

- apparent Kd (screen): 0.593 nM
B22: E103M (designed binder)
chain: B1 chain with G24H, E103M

- apparent Kd (screen): 0.79 nM
B23: E26V (designed binder)
chain: B1 chain with G24H, E26V

- apparent Kd (screen): 1.4 nM
B24: E44L (designed binder)
chain: B1 chain with G24H, E44L

- apparent Kd (screen): 0.653 nM
B25: E82Y (designed binder)
chain: B1 chain with G24H, E82Y

- apparent Kd (screen): 0.49 nM
B26: E60M (designed binder)
chain: B1 chain with G24H, E60M

- apparent Kd (screen): 8.56 nM
B27: L94E (designed binder)
chain: B1 chain with G24H, L94E

- apparent Kd (screen): 2.25 nM
B28: A35E (designed binder)
chain: B1 chain with G24H, A35E

- apparent Kd (screen): 5.84 nM
B29: V95G (designed binder)
chain: B1 chain with G24H, V95G

- apparent Kd (screen): 0.869 nM
B30: E61P (designed binder)
chain: B1 chain with G24H, E61P

- apparent Kd (screen): 13.8 nM
B31: L99C (designed binder)
chain: B1 chain with G24H, L99C

- apparent Kd (screen): 0.49 nM
B32: K33T (designed binder)
chain: B1 chain with G24H, K33T

- apparent Kd (screen): 1.05 nM
B33: S80C (designed binder)
chain: B1 chain with G24H, S80C

- apparent Kd (screen): 4.39 nM
B34: I98F (designed binder)
chain: B1 chain with G24H, I98F

- apparent Kd (screen): 13.8 nM
B35: E91C (designed binder)
chain: B1 chain with G24H, E91C

- apparent Kd (screen): 1.27 nM
B36: K15C (designed binder)
chain: B1 chain with K15C, G24H

- apparent Kd (screen): 2.73 nM
B37: E7S (designed binder)
chain: B1 chain with E7S, G24H

- apparent Kd (screen): 2.25 nM
B38: Y101M (designed binder)
chain: B1 chain with G24H, Y101M

- apparent Kd (screen): 4.83 nM
B39: Y50Q (designed binder)
chain: B1 chain with G24H, Y50Q

- apparent Kd (screen): 8.56 nM
B40: E91Y (designed binder)
chain: B1 chain with G24H, E91Y

- apparent Kd (screen): 0.49 nM
B41: E34N (designed binder)
chain: B1 chain with G24H, E34N

- apparent Kd (screen): 0.405 nM
B42: Y101E (designed binder)
chain: B1 chain with G24H, Y101E

- apparent Kd (screen): 1.16 nM
B43: K17W (designed binder)
chain: B1 chain with K17W, G24H

- apparent Kd (screen): 0.446 nM
B44: H24C (designed binder)
chain: B1 chain with G24C

- apparent Kd (screen): 0.446 nM
B45: A10G (designed binder)
chain: B1 chain with A10G, G24H

- apparent Kd (screen): 0.79 nM
B46: K85L (designed binder)
chain: B1 chain with G24H, K85L

- apparent Kd (screen): 1.54 nM
B47: V74M (designed binder)
chain: B1 chain with G24H, V74M

- apparent Kd (screen): 0.446 nM
B48: K71N (designed binder)
chain: B1 chain with G24H, K71N

- apparent Kd (screen): 0.446 nM
B49: K85D (designed binder)
chain: B1 chain with G24H, K85D

- apparent Kd (screen): 12.5 nM
B50: E3L (designed binder)
chain: B1 chain with E3L, G24H

- apparent Kd (screen): 0.446 nM
B51: I21V (designed binder)
chain: B1 chain with I21V, G24H

- apparent Kd (screen): 5.31 nM
B52: K17D (designed binder)
chain: B1 chain with K17D, G24H

- apparent Kd (screen): 0.869 nM
B53: S77Y (designed binder)
chain: B1 chain with G24H, S77Y

- apparent Kd (screen): 2.73 nM
B54: K48W (designed binder)
chain: B1 chain with G24H, K48W

- apparent Kd (screen): 15.2 nM
B55: I87D (designed binder)
chain: B1 chain with G24H, I87D

- apparent Kd (screen): 3.63 nM
B56: E60N (designed binder)
chain: B1 chain with G24H, E60N

- apparent Kd (screen): 0.49 nM
B57: A36H (designed binder)
chain: B1 chain with G24H, A36H

- apparent Kd (screen): 0.79 nM
B58: A90S (designed binder)
chain: B1 chain with G24H, A90S

- apparent Kd (screen): 0.653 nM
B59: K93F (designed binder)
chain: B1 chain with G24H, K93F
